The series concerns the molecule itself. Description: small angle X-ray scattering.

B1: phospho-mimetic tbWag31-T73E (DivIVA/Wag31 from M. tuberculosis, Rv2145c) (natural protein)
chain: MPLTPADVHNVAFSKPPIGKRGYNEDEVDAFLDLVENELTRLIEENSDLRQRINELDQELAAGGGAGVTPQAEQAIPAYEPEPGKPAPAAVSAGMNEEQALKAARVLSLAQDTADRLTNTAKAESDKMLADARANAEQILGEARHTADATVAEARQRADAMLADAQSRSEAQLRQAQEKADALQADAERKHSEIMGTINQQRAVLEGRLEQLRTFEREYRTRLKTYLESQLEELGQRGSAAPVDSNADAGGFDQFNRGKN
As for B1, the binding result is “binds”.

B2: phospho-ablative tbWag31-T73A (DivIVA/Wag31 from M. tuberculosis, Rv2145c) (natural protein)
chain: MPLTPADVHNVAFSKPPIGKRGYNEDEVDAFLDLVENELTRLIEENSDLRQRINELDQELAAGGGAGVTPQAAQAIPAYEPEPGKPAPAAVSAGMNEEQALKAARVLSLAQDTADRLTNTAKAESDKMLADARANAEQILGEARHTADATVAEARQRADAMLADAQSRSEAQLRQAQEKADALQADAERKHSEIMGTINQQRAVLEGRLEQLRTFEREYRTRLKTYLESQLEELGQRGSAAPVDSNADAGGFDQFNRGKN
For the protein B2, the binding result was “binds”.

The record behind these values is paper doi:10.1101/394452 (bioRxiv, 2018).
